Kd and koff data for 1 molecule are collected here from publication PMC5874916 (2018).

In assay [1] the target is T1, 6xHis-tagged WT RTp51/p66 heterodimer purified from E. coli (HIV-1, UniProt P04585 588-1027). The assay can be described thus: BLI. (Biolayer interferometry detects binding as a change in optical thickness at a sensor tip.)
Assay [2] addresses T1, 6xHis-tagged WT RTp51/p66 heterodimer …. The assay can be described thus: BLI. This is another data set of the same source.

B1: purified recombinant eEF1A1 (OriGene), biotinylated (natural protein)
chain: MGKEKTHINIVVIGHVDSGKSTTTGHLIYKCGGIDKRTIEKFEKEAAEMGKGSFKYAWVLDKLKAERERGITIDISLWKFETSKYYVTIIDAPGHRDFIKNMITGTSQADCAVLIVAAGVGEFEAGISKNGQTREHALLAYTLGVKQLIVGVNKMDSTEPPYSQKRYEEIVKEVSTYIKKIGYNPDTVAFVPISGWNGDNMLEPSANMPWFKGWKVTRKDGNASGTTLLEALDCILPPTRPTDKPLRLPLQDVYKIGGIGTVPVGRVETGVLKPGMVVTFAPVNVTTEVKSVEMHHEALSEALPGDNVGFNVKNVSVKDVRRGNVAGDSKNDPPMEAAGFTAQVIILNHPGQISAGYAPVLDCHTAHIACKFAELKEKIDRRSGKKLEDGPKFLKSGDAAIVDMVPGKPMCVESFSDYPPLGRFAVRDMRQTVAVGVIKAVDKKAAGAGKVTKSAQKAQKAK
modifications: biotin (EZ-Link-sulfo-NHS-biotin)
On to B1, for which, in assay [1], binding was put at a Kd of 3.48 nM. In assay [2], the koff came to 0.000475 s⁻¹.

The Kd is the free concentration of one partner at which half of the binding sites on the other are occupied at equilibrium, for simple one-to-one binding. A higher Kd goes with a looser complex. Usually koff stands for the rate constant with which the complex falls apart.
